From patent US20090175872A1, “Treatment of Conditions Involving Demyelination” (BIOGEN Idec MA Inc., priority 2005, published 2009)

Assays:
[1] = system: co-cultures of dorsal root ganglion (DRG) neurons and oligodendrocytes; assay: Myelination in co-cultures of DRG neurons and oligodendrocytes; assay type: cell-based, rat
Experimental: The role of Sp35 in myelination was examined in vitro by treating co-cultures of dorsal root ganglion (DRG) neurons and oligodendrocytes with Sp35-Fc and testing for myelination by immunohistochemistry and electron microscopy. For these studies, it was necessary to first generate primary cultures of DRG neurons and of oligodendrocytes.
Female Long Evans rat E14-E17 embryonic dorsal root ganglia were cultured as described by Plant et al., J. Neurosci. 22:6083-91 (2002). Dissected DRGs were plated on poly-L-lysine-coated cover slips (100 μg/ml) for 2 weeks in the presence of fluorodeoxyuridine for days 2-6 and days 8-11 in NLA medium containing 1×B27, 100 ng/ml NGF (Invitrogen).
A2B5^+ oligodendrocytes were prepared as described in Example 1, and were harvested by trypsinization.
For coculture studies, A2B5^+ oligodendrocytes were added to DRG neuron drop cultures in the presence or absence of 10 μg/ml Sp35-Fc. The culture medium (Neurobasal medium supplemented with B27 and 100 ng/ml NGF) was changed, and fresh Sp35-Fc was added to the cells every 3 d. To identify changes in myelination, 2-week-old cultures were stained by immunohistochemical staining (“IHC”) for neurofilaments with anti-βIII-tubulin antibody to identify axons, or anti-MBP antibody to identify oligodendrocytes., and 4-week-old cultures were subjected to SDS-PAGE followed by western blot analyses to quantify the MBP. In selected examples, cells were fixed for electron microscopy studies by adding 2.5% gluteraldehyde directly onto the cover slips. Myelinated axons in the 2-week-old cultures were quantified by counting the number of myelinated internode bundles that were derived from single MBP^+ oligodendrocytes. Samples were analyzed in duplicate. Error bars denote individual determinations. P values in all studies were determined using a one-way analysis of variance. […]
We performed experiments to address the relative contributions to the myelination process of Sp35 in DRG neurons as compared to oligodendrocytes. We infected DRG neurons, oligodendrocytes and co-cultures (prepared as described in Example 5) with the FL-Sp35 and DN-Sp35 lentiviral vectors described in Example 1 and performed immunohistochemical straining for myelinated MBP^+ cells after two weeks. A 2-fold increase in MBP levels in co-cultures where both cells express DN-Sp35 and a 2-fold decrease in MBP levels in co-cultures where both cells express FL-Sp35 was observed (FIG. 10G).

RhoA-GTP = RhoA-GTP levels in oligodendrocyte lysates (western blotting); assay type: cell-based, rat; conditions: versus corresponding control, FIG. 9A
Excerpt: A strong candidate signaling pathway that is implicated in the control of oligodendrocyte differentiation is the Rho family of GTPases. Rho GTPases regulate cellular morphology, and reduced RhoA-GTP amounts are required for oligodendrocyte differentiation. See Liang, X, et al., J. Neurosci. 24:7140-7149 (2004). To determine whether Sp35 signals through the RhoA pathway, RhoAGTP levels in cell lysates of oligodendrocytes treated with Sp35-Fc were compared with levels in the corresponding control via western blotting.

[2] = system: differentiated PC12 cells; assay: Apoptotic cell death in differentiated PC12 cells after NGF withdrawal (cell death ELISA / TUNEL); assay type: cell-based
[3] = system: spinal cord injury in Long Evans rats; assay: Spinal cord injury (dorsal hemisection), intrathecal mini-osmotic pump; assay type: in vivo, rat
Experimental: Spinal cord injury was induced in adult female Long Evans rats (190-210 g; Charles River). A dorsal hemisection was performed at T6/T7, completely interrupting the main dorsomedial and the minor dorsolateral corticospinal tract (CST) components. The cord was sterotaxically transected at a depth of 1.8 mm from the surface using a microscalpel. […] Postoperative care comprised analgesia (Buprenorphine/Buprenex, Reckitt Benckiset Healthcare Ltd., 0.05 mg/kg subcutaneously) every 8-12 hours for 3 days and antibiotic treatment (ampicillin, Bristol Myers Squibb, 100 mg/kg subcutaneously twice daily) for 7 days after surgery. Bladders were expressed manually twice a day for the duration of the study (4 weeks) or until return of function. On completion of the study, rats were anesthetized and trans-cardially perfused with heparinized saline followed by 4% paraformaldehyde (PFA). The spinal cords were removed, embedded in paraffin, and 10 μm sections were cut from for histological analysis.
To quantify apoptotic cell death after SCI, animals were euthanized 3 or 7 days after SCI and stained using anti-activated-Caspase-3 antibody (Cell Signaling Technologies) and TUNEL staining (Promega). The sections were also stained with anti-NeuN antibody (Chemicon) and anti-CC1 antibody (Calbiochem) to identify neurons and oligodendrocytes, respectively.

human ErbB2 = target: T1, human ErbB2 (Homo sapiens, UniProt P04626); assay: AP-Sp35 binding to ErbB2-transfected CHO cells; conditions: pre-incubation with soluble fusion protein, FIG. 17B
T1 construct: expressed in transfected cells; host or cells: CHO cells, transient transfection with Fugene 6, assayed after 48 hours
Experimental: ErbB2 is a member of the type I family of transmembrane receptor tyrosine kinases. The family comprises four members: epidermal growth factor receptor (EGFR or ErbB1), ErB2 (HER2 or neu), ErbB3 and ErbB4. Oligodendrocyte differentiation is positively regulated by the ErbB2 receptor tyrosine kinase. To examine the potential interaction between Sp35 and ErB2, an N-terminal AP-tagged human Sp35 protein was tested for binding to human ErbB2-transfected Chinese hamster ovary (CHO) cells.
90% confluent CHO cells were transfected with various combinations of human ErbB2 vector expression plasmid using Fugene 6 reagents (Roche). After 48 hours, the transfected cells were washed with HBH (Hank's balanced salt solution, 1 mg/ml BSA, 20 mM HEPES (pH 7.0)) and incubated for 1.5 hours at 23° C. or […] with 4 μg/ml of AP-Sp35 (human placental alkaline phosphotase (AP) with an N-terminal six histidine tag, fused to the C-terminus of human Sp35 (residues 34-532), as described in Mi et al., Nat. Neurosci. 7:221-228 (2004)) or control AP-protein in HBH. Bound AP-Sp35 was detected directly or following detergent lysis of the cells by ELISA and enzymatic activity was quantified with 4-NPP as described in Mi et al. Nat. Neurosci. 7:221-228 (2004).
In order to identify the Sp35 domain that binds ErbB2, soluble truncated forms of AP-Sp35 were tested for binding. Both the LRR domain of Sp35 (amino acids 34-417 of SEQ ID NO:2) (AP-Sp35-LRR) and the extracellular domain of Sp35 (amino acids 34-532 of SEQ ID NO:2) (AP-Sp35) bound to ErbB2 expressed in CHO cells. […] FIGS. 17B and 17C.

B1: Sp35-Fc: extra-cellular portion of human Sp35 (residues 1-532) fused to the hinge and Fc region of human IgG1 (protein)
chain: TGCPPRCECSAQDRAVLCHRKRFVAVPEGIPTETRLLDLGKNRIKTLNQDEFASFPHLEELELNENIVSAVEPGAFNNLFNLRTLGLRSNRLKLIPLGVFTGLSNLTKLDISENKIVILLDYMFQDLYNLKSLEVGDNDLVYISHRAFSGLNSLEQLTLEKCNLTSIPTEALSHLHGLIVLRLRHLNINAIRDYSFKRLYRLKVLEISHWPYLDTMTPNCLYGLNLTSLSITHCNLTAVPYLAVRHLVYLRFLNLSYNPISTIEGSMLHELLRLQEIQLVGGQLAVVEPYAFRGLNYLRVLNVSGNQLTTLEESVFHSVGNLETLILDSNPLACDCRLLWVFRRRWRLNFNRQQPTCATPEFVQGKEFKDFPDVLLPNYFTCRRARIRDRKAQQVFVDEGHTVQFVCRADGDPPPAILWLSPRKHLVSAKSNGRLTVFPDGTLEVRYAQVQDNGTYLCIAANAGGNDSMPAHLHVRSYSPDWPHQPNKTFAFISNQPGE
modifications: left off: a dimerising Fc or GST
notes: extra-cellular portion of human Sp35 (residues 1-532) fused to the hinge and Fc region of human IgG1
[1]; 4-week co-cultures, FIG. 10C
  internodes and nodes of Ranvier by electron microscopy: Multiple wellformed internodes were observed
[1]; 4-week-old treated co-cultures, anti-MBP antibody
  expression of MBP (western blot): increased
[1]; exogenously added
  effect on myelination when both cell types overexpress DN-Sp35: slight effects
  effect on myelination when either cell type overexpresses DN-Sp35 alone: further enhanced myelination
[1]; exogenously added, FL-Sp35 in either or both cell types
  effect on inhibition of myelination by overexpression of FL-Sp35: reversed the inhibition of myelination
[1]; treatment for 2 weeks, dose-dependent, FIG. 10A
  axonal myelination (MBP+ myelinated axons): robust axonal myelination
RhoA-GTP
  reduction in RhoA-GTP: threefold reduction
[2]; 18 hours after NGF withdrawal, versus control, FIG. 13 legend
  cells undergoing apoptosis (TUNEL assay): fewer cells undergoing apoptosis
[2]; 42 hours after withdrawal of NGF, FIG. 13
  cell death (TUNEL ELISA): significantly reduced cell death
[3]; 3 days after SCI, 0.25 μl/h of 25 μM intrathecal
  number of activated-Caspase-3-positive neurons and oligodendrocytes versus controls: significantly smaller
[3]; four weeks after SCI, anti-βIII-tubulin and anti-O4 staining
  neuron and oligodendrocyte survival in tissue surrounding the lesion site versus controls: more neurons and oligodendrocytes survived
Human ErbB2
  AP-Sp35 binding to ErbB2-expressing cells after pre-incubation: blocked
